Data on 167 variants can be found in the MegaScale stability set (Tsuboyama et al. 2023).

Sequences and labels used below:
B1: r16_88_TrROS_Hall (parent)
chain: EVIELKIKFKTPEQREKLKEIAKKLNAEVVEEKDGEVIIRFKTPEQAERALKEAEKLGAEVEL

The variants in the data set derive from B1. Nature of the data set: folding stability dG (cDNA display proteolysis); higher = more stable. To be noted: PBS, room temperature.
In the case of K17W, the “folding stability dG” value turned out to be 4.61 kcal/mol. For the variant K17V, the “folding stability dG” value was 4.28 kcal/mol.

As to K17I, the “folding stability dG” value was 4.18 kcal/mol.

Take A59F: the “folding stability dG” value came to 4.59 kcal/mol. Consider A59S, for which the “folding stability dG” value amounted to 4.26 kcal/mol. With A59Q, the “folding stability dG” value amounted to 4.05 kcal/mol.

Consider A59N, for which the “folding stability dG” value is 4.3 kcal/mol. As for A59Y, the “folding stability dG” value is 4.5 kcal/mol. Consider A59T, for which the “folding stability dG” value amounted to 4.27 kcal/mol.

As for A59R, the “folding stability dG” value is 3.99 kcal/mol.

As for A59P, the “folding stability dG” value stood at 4.55 kcal/mol.

On to E4H, for which the “folding stability dG” value was 4.42 kcal/mol.

On to E4K, for which the “folding stability dG” value came to 4.51 kcal/mol. As for E4A, the “folding stability dG” value came to 4.69 kcal/mol. Regarding E4D, the “folding stability dG” value came out at 4.4 kcal/mol. With E4R, the “folding stability dG” value turned out to be 4.58 kcal/mol. With E4N the figure was 4.35 kcal/mol; with E4Q, 4.79 kcal/mol; with K56M, 4.57 kcal/mol.

Regarding K56Y, the “folding stability dG” value came out at 4.41 kcal/mol. With K56E the figure was 4.28 kcal/mol; with K56F, 4.23 kcal/mol. With A27N the figure was 3.76 kcal/mol; with A27F, 4.4 kcal/mol. In the case of A27L, the “folding stability dG” value stood at 4.45 kcal/mol.

As to A27Q, the “folding stability dG” value stood at 3.88 kcal/mol.

Regarding A27I, the “folding stability dG” value was 4.34 kcal/mol. In the case of A27K, the “folding stability dG” value came to 3.95 kcal/mol. On to A27P, for which the “folding stability dG” value was 4.01 kcal/mol.

With A27C, the “folding stability dG” value was found to be 4.25 kcal/mol. Consider R40M, for which the “folding stability dG” value stood at 4.64 kcal/mol. For R40A the value was 4.3 kcal/mol; for T11F, 4.54 kcal/mol; for T11G, 4.26 kcal/mol. T11H: the “folding stability dG” value was 4.42 kcal/mol.

In the case of T11L, the “folding stability dG” value worked out at 4.75 kcal/mol. For the variant T11W, the “folding stability dG” value came to 4.6 kcal/mol.

As to T11C, the “folding stability dG” value worked out at 4.58 kcal/mol. As to A22W, the “folding stability dG” value turned out to be 4.68 kcal/mol.

Regarding A22K, the “folding stability dG” value amounted to 3.78 kcal/mol. Turning to A22R, the “folding stability dG” value came to 4.18 kcal/mol. With E36V the figure was 4.36 kcal/mol. For E36L the value was 4.61 kcal/mol; for E36Q, 4.67 kcal/mol; for E36W, 4.7 kcal/mol. For E36A the value was 4.59 kcal/mol; for E36I, 4.32 kcal/mol. For the variant E36Y, the “folding stability dG” value was determined as 4.89 kcal/mol. For E36R the value was 4.62 kcal/mol.

As for V61N, the “folding stability dG” value worked out at 4.28 kcal/mol. Turning to V61R, the “folding stability dG” value was 3.46 kcal/mol.

V61A: the “folding stability dG” value was 4.51 kcal/mol.

Turning to V61S, the “folding stability dG” value stood at 3.93 kcal/mol. Turning to V61Y, the “folding stability dG” value came to 3.79 kcal/mol. Regarding V61M, the “folding stability dG” value worked out at 3.99 kcal/mol.

Take V61K: the “folding stability dG” value came out at 3.84 kcal/mol. With V61L the figure was 4.28 kcal/mol; with F41E, 0.961 kcal/mol; with F41L, 4.01 kcal/mol. In the case of F41A, the “folding stability dG” value worked out at 4.49 kcal/mol. With A50I the figure was 4.4 kcal/mol; with A50F, 4.38 kcal/mol. For A50Y the value was 4.43 kcal/mol; for A50Q, 3.84 kcal/mol; for R49P, 4.17 kcal/mol.

As for R49G, the “folding stability dG” value was determined as 4.37 kcal/mol. As to R49E, the “folding stability dG” value was 4.52 kcal/mol. Regarding R49D, the “folding stability dG” value amounted to 4.56 kcal/mol.

As to R49I, the “folding stability dG” value turned out to be 4.49 kcal/mol. R49Q: the “folding stability dG” value stood at 4.41 kcal/mol. R49F: the “folding stability dG” value came out at 4.76 kcal/mol. Consider R49V, for which the “folding stability dG” value turned out to be 4.5 kcal/mol. Take I3K: the “folding stability dG” value worked out at 4.76 kcal/mol.

On to I3N, for which the “folding stability dG” value was determined as 4.76 kcal/mol.

I3C: the “folding stability dG” value came out at 4.46 kcal/mol. Consider I3E, for which the “folding stability dG” value is 4.3 kcal/mol. As to I3R, the “folding stability dG” value stood at 4.61 kcal/mol. For the variant I3F, the “folding stability dG” value was found to be 4.97 kcal/mol. As to I3Q, the “folding stability dG” value worked out at 4.76 kcal/mol. Consider I3T, for which the “folding stability dG” value is 4.67 kcal/mol. On to E28N, for which the “folding stability dG” value turned out to be 4.17 kcal/mol.

For the variant E28G, the “folding stability dG” value stood at 4.33 kcal/mol. Take E28P: the “folding stability dG” value is 4.34 kcal/mol. Take E28L: the “folding stability dG” value was determined as 4.24 kcal/mol. In the case of L5T, the “folding stability dG” value turned out to be 4.04 kcal/mol. For L5H the value was 4.34 kcal/mol. With L5N the figure was 3.85 kcal/mol; with L5E, 3.72 kcal/mol. For the variant L5D, the “folding stability dG” value was 2 kcal/mol. L5Q: the “folding stability dG” value was 4.28 kcal/mol. With L5G the figure was 4.02 kcal/mol.

Take V2R: the “folding stability dG” value was found to be 4.21 kcal/mol. For V2N, the “folding stability dG” value came to 4.22 kcal/mol. For V2D the value was 4.1 kcal/mol; for V2F, 4.68 kcal/mol. For V2T the value was 4.19 kcal/mol; for V2W, 4.56 kcal/mol.

Take I7M: the “folding stability dG” value came to 4.39 kcal/mol. For the variant I7W, the “folding stability dG” value was 4.97 kcal/mol. I7L: the “folding stability dG” value came out at 4.64 kcal/mol. For I7D the value was 1.65 kcal/mol; for I7Y, 4.82 kcal/mol. For I7F the value was 4.53 kcal/mol; for I7G, 4.36 kcal/mol. Regarding I7T, the “folding stability dG” value is 4.09 kcal/mol. On to Q14E, for which the “folding stability dG” value worked out at 3.98 kcal/mol.

As for Q14M, the “folding stability dG” value was 4.43 kcal/mol. As to Q14H, the “folding stability dG” value was determined as 4.2 kcal/mol. With Q14G, the “folding stability dG” value was 4.33 kcal/mol. As for Q14K, the “folding stability dG” value is 4.09 kcal/mol.

Regarding E1D, the “folding stability dG” value was 4.2 kcal/mol. For E1W the value was 4.18 kcal/mol.

For the variant E1L, the “folding stability dG” value was 4.31 kcal/mol. For E1H, the “folding stability dG” value turned out to be 4.08 kcal/mol.

Turning to G58K, the “folding stability dG” value turned out to be 4.25 kcal/mol.

For the variant G58T, the “folding stability dG” value was 4.26 kcal/mol. Take G58E: the “folding stability dG” value is 4.12 kcal/mol. Take K24I: the “folding stability dG” value came to 4.49 kcal/mol. For K24A the value was 4.28 kcal/mol; for E62N, 4.53 kcal/mol. With E62L the figure was 4.21 kcal/mol. E62R: the “folding stability dG” value stood at 3.94 kcal/mol. Consider E62I, for which the “folding stability dG” value amounted to 4.35 kcal/mol. With E62Q the figure was 4.3 kcal/mol; with E62T, 4.4 kcal/mol. Take I38Y: the “folding stability dG” value came to 4.76 kcal/mol.

As for I38C, the “folding stability dG” value stood at 4.3 kcal/mol.

Turning to I38L, the “folding stability dG” value stood at 4.25 kcal/mol. For I38M the value was 4.51 kcal/mol; for I21F, 4.76 kcal/mol; for I21K, 3.78 kcal/mol. Consider I21S, for which the “folding stability dG” value was 4.17 kcal/mol. On to F9N, for which the “folding stability dG” value is 3.54 kcal/mol.

Take F9Y: the “folding stability dG” value was found to be 4.33 kcal/mol. With F9T the figure was 3.73 kcal/mol; with F9R, 2.76 kcal/mol; with F9D, 3.45 kcal/mol. In the case of F9S, the “folding stability dG” value came to 3.85 kcal/mol. With E31M, the “folding stability dG” value worked out at 4.37 kcal/mol. For E31R the value was 4.35 kcal/mol. For E31K, the “folding stability dG” value is 4.34 kcal/mol. Take E31W: the “folding stability dG” value amounted to 4.68 kcal/mol. As for E48G, the “folding stability dG” value came to 4.28 kcal/mol. Regarding E48L, the “folding stability dG” value came to 4.29 kcal/mol. For E48T the value was 4.28 kcal/mol; for L18S, 4.19 kcal/mol. With L18G the figure was 3.83 kcal/mol. With L18E the figure was 1.57 kcal/mol; with L18C, 4.11 kcal/mol; with V37K, 3.31 kcal/mol.

For V37I, the “folding stability dG” value amounted to 4.39 kcal/mol. For the variant D34I, the “folding stability dG” value worked out at 4.5 kcal/mol. For D34H, the “folding stability dG” value stood at 4.52 kcal/mol. As to D34Q, the “folding stability dG” value was determined as 4.35 kcal/mol. With N26W, the “folding stability dG” value is 4.36 kcal/mol.

Turning to N26Y, the “folding stability dG” value amounted to 4.31 kcal/mol.

For the variant N26L, the “folding stability dG” value turned out to be 4.16 kcal/mol.

N26E: the “folding stability dG” value was determined as 4.09 kcal/mol.

As for K23V, the “folding stability dG” value was 4.62 kcal/mol. For K23L, the “folding stability dG” value came to 4.53 kcal/mol. Turning to K23Q, the “folding stability dG” value was 4.27 kcal/mol. With K23H the figure was 4.28 kcal/mol. For the variant K23D, the “folding stability dG” value was 4.09 kcal/mol. As for K10M, the “folding stability dG” value is 4.19 kcal/mol.

Turning to K10H, the “folding stability dG” value was found to be 4.28 kcal/mol.

For the variant K10D, the “folding stability dG” value amounted to 4.11 kcal/mol. On to K10L, for which the “folding stability dG” value turned out to be 4.29 kcal/mol.
